Measured values taken from patent US20200207858A1 (ADICET BIO, published 2020).

What was measured:
[1] = biological target: T1, Single-chain HLA-A2 (scHLA-A2)/TyrD 369-377 peptide complex; experiment: SPR (ProteOn), IgG captured by immobilized anti-human antibody, scHLA-A2/TyrD complex as analyte at 16-250 nM, apparent affinity
T1 construct: Used as the soluble analyte in SPR; not shown: flexible linker

[2] = biological target: T1, Single-chain HLA-A2 (scHLA-A2)/TyrD …; experiment: SPR (ProteOn), IgG captured by immobilized anti-human antibody, scHLA-A2/TyrD 369-377 as analyte (250-16 nM), Langmuir kinetic fit, column KD
Description: (§1) Briefly, six channels of ProteOn GLM sensor chip (BioRad laboratories) were activated with 50 μl of a mixture of 0.04 M N-ethyl-N′-(3-dimethylaminopropyl) carbodiimide (EDC) and 0.01 M sulfo-N-hydroxysuccinimide (Sulfo-NHS) at a flow rate of 30 μl/min. The anti-mouse or anti-human polyclonal antibodies (Jackson ImmunoResearch) were diluted in 10 mM sodium acetate buffer pH 4.5 to a final concentration of 25 μg/ml and 150 μl were injected followed by an injection of 150 μl of 1 M ethanolamine-HCl pH 8.5. The IgG TCRL antibodies were injected in the vertical orientation with a flow rate of 30 μl/min. […] Running buffer (PBST) was injected simultaneously in the sixth channel for double referencing to correct for loss of the captured antibodies from the chip sensor surface during the experiment. All binding sensorgrams were collected, processed and analyzed using the integrated ProteOn Manager (Bio-Rad Laboratories, Hercules, USA) software. Binding curves were fitted using the Langmuir model describing 1:1 binding stoichiometry, or with the Langmuir and mass transfer limitation model.

[3] = biological target: T1, Single-chain HLA-A2 (scHLA-A2)/TyrD …; experiment: SPR (ProteOn), IgG captured by immobilized anti-mouse antibody, scHLA-A2/TyrD complex as analyte at 16-250 nM, apparent affinity
Description: as §1

[4] = biological target: T1, Single-chain HLA-A2 (scHLA-A2)/TyrD …; experiment: SPR (ProteOn), IgG captured by immobilized anti-mouse antibody, scHLA-A2/TyrD 369-377 as analyte (250-16 nM), Langmuir kinetic fit, column KD
Description: as §1

Kd [1] [nM] | Kd [2] [nM] | Kd [3] [nM] | Kd [4] [nM] | Binder
3.9 | 4.61 |  |  | hD11-5 TCRL antibody (humanized D11) (antibody, human IgG1, kappa, V domains shown, The antibody was biotinylated for flow cytometry; also called dH11-5) VH: QITLKESGPTLVKPTQTLTLTCTFSGFSLSTSGMGVSWIRQPPGKALEWLAHIYWDDDKRYNPSLKSRLTITKDTSKNQVVLTMTNMDPVDTATYYCARKDYGSSFYAMHYWGQGTLVTVSS VL: DIQMTQSPSSLSASVGDRVTITCKASQDIHNYIAWYQQKPGKAPKLLIHYTSTLQPGVPSRFSGSGSGTDFTFTISSLQPEDIATYYCLQYDNLWTFGQGTKVEIKR
 |  | 4.6 | 3.98 | D11 TCRL antibody (murine parental monoclonal antibody) (antibody, mouse IgG1, kappa, V domains shown, Mouse IgG1 isotype, recombinant from Expi293 cells; The antibody was biotinylated for flow cytometry; also called mouse parental D11) VH: not shown VL: DIQMTQSPSSLSASLGGKVTITCKASQDIHNYIAWYQHKPVKGPRLLIHYTSTLQPGTPSRFSGSGSGRDYSFSISNLEPEDIATYYCLQYDNLWTFGGGTKLEIKR
